For 167 variants, self-cleavage results are on record in the RNAGym collection of RNA variant scans (doi:10.7554/elife.90254).

First the molecules themselves.
B1: OR4K15 (parent)
chain: GUUAACGGUCAUAGGCCAUGGAAACUAGGAGCACCAUUUCGCUGCCAGUGAAGAAAUGAACAAAGAAAAUCUGGGCCAGGCAGGCAUCAAAAGAAAUAGUCUUGCGCUCAACCAGAAAGUCUGUAAUCAUUUUAAGGGUA

The data set covers variants of B1. The data set is described as follows: self-cleavage, relative activity (ratio to wild type); higher = more cleavage; in vitro, sequencing; the parent is a self-cleaving ribozyme.
With A66U A69G, the self-cleavage came to 1.06.
Turning to G65A A91G, the self-cleavage was determined as 0.96.
With A69G A117U, the self-cleavage amounted to 0.97.
As to A69G A117G, the self-cleavage turned out to be 1.44.
As for A66C U131A, the self-cleavage stood at 1.1.
Regarding A68C U127G, the self-cleavage was 2.01.
On to A69G A78U, for which the self-cleavage was 0.33.
For the variant A67G U87A, the self-cleavage amounted to 1.28.
The same measure for A64U A126G: 1.12; for A68G A135U: 0.68.
With A69G G104C, the self-cleavage was 0.01.
As for A66G U127C, the self-cleavage was 1.11.
Turning to A69G U127C, the self-cleavage was determined as 0.82.
Consider A69G A110U, for which the self-cleavage was determined as 0.98.
For A69G A110G, the self-cleavage was 0.14.
The same measure for A67G A110G: 0.11; for A66U G75C: 0.18.
The same measure for A64U U108C: 0.02.
As to A64U C77U, the self-cleavage was found to be 1.56.
In the case of A68U A82G, the self-cleavage was determined as 0.75.
Turning to A68U A82U, the self-cleavage stood at 0.25.
On to A68G U102C, for which the self-cleavage stood at 1.9.
Turning to A67G A95G, the self-cleavage was 2.37.
As for A66U A96G, the self-cleavage is 1.17.
In the case of A68U A78G, the self-cleavage was 0.27.
In the case of A69U U87A, the self-cleavage turned out to be 1.79.
The same measure for A69G G73U: 0.33; for A66U U130C: 1.34; for A69G U72A: 0.19.
With A69G U72C, the self-cleavage came out at 0.3.
As for A68G U70A, the self-cleavage came to 1.12.
The same measure for A69G U131G: 0.46.
As to A69G C81A, the self-cleavage was 0.15.
In the case of A66U A91G, the self-cleavage turned out to be 0.65.
Consider A69G A111G, for which the self-cleavage amounted to 0.03.
The figure for A68U U132G is 0.9.
Take A67G C113U: the self-cleavage was determined as 0.17.
For the variant A66G A116G, the self-cleavage was 0.6.
In the case of A68U A92G, the self-cleavage turned out to be 0.44.
For the variant A67G C107A, the self-cleavage was 0.04.
For the variant A66G A98U, the self-cleavage was determined as 1.08.
On to A69G C109A, for which the self-cleavage is 0.37.
The figure for A64U A94U is 1.63; for A68U A126G it is 0.6; for A67G A86U it is 2.13.
With A66U A90G, the self-cleavage turned out to be 1.22.
In the case of A67G A111G, the self-cleavage is 0.02.
For A66G A82G, the self-cleavage was found to be 0.26.
A69G U139C: the self-cleavage came out at 1.24.
As to A68G C112U, the self-cleavage stood at 0.02.
For A67G C88U, the self-cleavage was 1.97.
The figure for A67G A69G is 0.77; for A67U A116C it is 0.1.
For A69U A110G, the self-cleavage came to 0.09.
On to A69U A86G, for which the self-cleavage is 2.37.
In the case of A68U U122C, the self-cleavage came to 1.51.
The same measure for A64U A92C: 1.53; for A68G G138A: 1.67; for A68G U87A: 0.96.
The figure for A64U A116G is 0.21.
A67G A117G: the self-cleavage is 1.66.
A67G A117U: the self-cleavage was 0.32.
The figure for A67G A117C is 0.17; for A69G U130C it is 0.5; for A69G U130G it is 1.3.
For the variant A68G C77A, the self-cleavage is 0.54.
For the variant A66G C77A, the self-cleavage was found to be 0.91.
In the case of A69G G79U, the self-cleavage was 0.1.
With A69U A91G, the self-cleavage turned out to be 1.79.
Regarding A68G A69C, the self-cleavage amounted to 0.94.
As to A68G A69G, the self-cleavage is 0.87.
On to A68G A69U, for which the self-cleavage turned out to be 1.38.
The same measure for A68G U103A: 0.5; for A68G U103C: 0.96; for A67G U122C: 0.99.
Take A67G U122A: the self-cleavage was determined as 0.99.
A69G A118U: the self-cleavage is 0.56.
For A69U A94U, the self-cleavage was found to be 2.23.
Regarding A68U U87C, the self-cleavage came out at 1.78.
The same measure for A68U U87G: 0.38; for A66G U122C: 1.67.
A66G U122A: the self-cleavage is 1.63.
With A66G U122G, the self-cleavage was found to be 2.19.
Regarding A66G A114C, the self-cleavage is 0.06.
On to A66G A114G, for which the self-cleavage was 0.48.
For the variant A69G C105G, the self-cleavage amounted to 0.02.
With G65A A78G, the self-cleavage turned out to be 0.2.
Take A67C U139C: the self-cleavage was 2.18.
A66C C113A: the self-cleavage came out at 0.02.
The same measure for A67G U130C: 1.25; for A69G U70C: 0.25; for A67G A125G: 0.57.
As to A66U A86C, the self-cleavage turned out to be 1.36.
Turning to A69U A114G, the self-cleavage came to 2.05.
The figure for A67U U122A is 1.36; for A66U U139A it is 2.31.
Turning to A64U U122A, the self-cleavage is 1.78.
As for A66G A78U, the self-cleavage came out at 0.5.
As to A69G U103C, the self-cleavage was 0.73.
With A68G A96C, the self-cleavage was 1.42.
With A68G A96U, the self-cleavage is 2.13.
For the variant A67G G137A, the self-cleavage worked out at 1.67.
On to A66G U72A, for which the self-cleavage was found to be 0.32.
As to A64U A117G, the self-cleavage was 1.18.
The same measure for A67G U132C: 1.66; for A69C U120C: 0.7; for A66U A95G: 1.87.
Consider A69G U100G, for which the self-cleavage is 1.94.
As to A68G A89G, the self-cleavage came out at 2.04.
A66G A69G: the self-cleavage was 1.02.
For A66G A69C, the self-cleavage was 1.67.
In the case of A66G G75A, the self-cleavage is 0.08.
Take A69C A96C: the self-cleavage was determined as 1.03.
As for A67G U103G, the self-cleavage stood at 0.05.
In the case of A67G U103A, the self-cleavage is 0.89.
In the case of A67G U102C, the self-cleavage was 1.56.
The same measure for A67G U102A: 1.3.
With A68U G119A, the self-cleavage was 1.58.
Regarding A69U A82G, the self-cleavage stood at 0.63.
The same measure for A69U A82U: 0.04; for A68U U102C: 2.04; for A68U U102A: 1.15.
For the variant A68G A94G, the self-cleavage stood at 1.34.
The same measure for A68G A94U: 2.3; for A66U A110G: 0.14; for A69C A90G: 0.37.
The figure for A68G A140G is 1.91; for A66G C105G it is 0.03; for A66G G80C it is 0.12.
Turning to A67G G93U, the self-cleavage turned out to be 1.17.
The same measure for A69G U132C: 1.56; for A68G A111U: 0.21.
With A68G A129C, the self-cleavage stood at 0.82.
The same measure for A68G A129G: 1.05; for A68G A129U: 1.42; for A66G U108C: 0.02.
Consider A66G U108A, for which the self-cleavage amounted to 0.02.
Regarding A69G A140G, the self-cleavage is 1.93.
With A68C U132C, the self-cleavage came out at 1.61.
With A66U U102C, the self-cleavage is 1.8.
For the variant A68G A117G, the self-cleavage was found to be 2.
The figure for A68G A117U is 0.82; for A68U U108A it is 0.05; for A64U U103C it is 0.87.
Take A64U U103A: the self-cleavage was 1.08.
For the variant A68U A116G, the self-cleavage was 1.07.
A64U U102A: the self-cleavage stood at 1.07.
On to A64U U102C, for which the self-cleavage was 2.23.
The same measure for A67G A94G: 1.74.
Regarding A67G A94U, the self-cleavage stood at 1.92.
On to A68G A92C, for which the self-cleavage was 1.7.
A68G A92G: the self-cleavage came to 1.55.
Regarding A66G G136A, the self-cleavage was determined as 1.72.
In the case of A66G U120A, the self-cleavage stood at 1.73.
Consider A66G U120G, for which the self-cleavage was 2.47.
As to A68U A96G, the self-cleavage amounted to 1.98.
As for A69G A98U, the self-cleavage was found to be 1.35.
Turning to A69G A98G, the self-cleavage amounted to 0.49.
The figure for A67G A68C is 0.53.
For the variant A67G A68G, the self-cleavage worked out at 1.5.
A68C A110G: the self-cleavage is 0.16.
As to A67U A90G, the self-cleavage is 1.72.
The figure for A67G U70C is 1.05.
For the variant A64U A110G, the self-cleavage came out at 0.11.
Regarding A68U A140U, the self-cleavage worked out at 1.65.
On to A68G A118C, for which the self-cleavage was 0.67.
The same measure for A68G A118G: 0.77.
